Data published in US7304127.
Several values for one entry are separate records, joined by “and”; a condition that tells them apart may be missing. Equal entries are not always repeated.

B1: CXCR4 45-62 (peptide)
peptide: YSIIFLTGIVGNGLVILV
modifications: not checked
B2: CXCR4 49-66 (peptide)
peptide: FLTGIVGNGLVILVMGYQ
modifications: not checked
B3: CXCR4 41-58 (peptide)
peptide: LPTIYSIIFLTGIVGNGL
modifications: not checked
B4: CXCR4 53-70 (peptide)
peptide: IVGNGLVILVMGYQKKLR
modifications: not checked
B5: CXCR4 37-54 (peptide)
peptide: NKIFLPTIYSIIFLTGIV
modifications: not checked

What follows are molecules tested against HIV-1LAI envelope gp120 labeled with radioactive iodine (HIV-1 LAI), P03377 (assay: 125I-gp120, peptide array).

Row | Molecule | counts minus background (counts per 20 min)
1 | B1 | 123
2 | B2 | 246
3 | B3 | 118
4 | B4 | 238
5 | B5 | 138

Each molecule was assayed against HIV-1LAI envelope gp120 labeled with radioactive iodine (HIV-1 LAI) (UniProt P03377) (assay: 125I-gp120, peptide array).

Row | Molecule | counts minus background (counts per 20 min)
6 | STRL33 133-150 (peptide) | 702 and 568
7 | STRL33 297-314 (peptide) | 144 and 82.5
8 | STRL33 113-130 (peptide) | 744 and 908
9 | STRL33 41-58 (peptide) | 570 and 284
10 | CCR5 237-254 (peptide) | 121
11 | CCR5 241-258 (peptide) | 214
12 | CCR5 105-122 (peptide) | 80
13 | CCR5 165-182 (peptide) | 98
14 | CCR5 161-178 (peptide) | 118
15 | CCR5 325-342 (peptide) | 100
16 | STRL33 61-78 (peptide) | 412 and 348
17 | STRL33 109-126 (peptide) | 352 and 510
18 | STRL33 29-46 (peptide) | 534 and 634
19 | STRL33 309-326 (peptide) | 112 and 122
20 | CCR5 221-238 (peptide) | 102
21 | STRL33 33-50 (peptide) | 606 and 372
22 | STRL33 105-122 (peptide) | 500 and 408
23 | CCR5 201-218 (peptide) | 180
